For orientation: Kd means a measure of binding affinity in units of concentration. Low readings indicate tighter binding, high ones weaker binding.

For one molecule, Kd results are on record in PMC5383250, “Functional studies of E. faecalis RNase J2 and its role in virulence and fitness” (PLoS ONE, 2017).

This experiment has as its target T1, E. faecalis RNase J2 (Enterococcus faecalis (strain OG1RF), UniProt Q836D0 1-562).
T1 construct: RNase J2 of Enterococcus faecalis, product of rnjB (ef1185); 1689 bp fragment PCR amplified from the OG1RF genome with primers 1185NdeF (begins at the ATG) and 1185XhoR (ends at the stop codon), in vector pQE30; recombinant protein M.W. 64.2 kDa; Vector pQE30; also called wild-type RNase J2; rnjB gene product; source: E. coli BL21, purified (Ni-NTA agarose)
T1 sequence (looked up): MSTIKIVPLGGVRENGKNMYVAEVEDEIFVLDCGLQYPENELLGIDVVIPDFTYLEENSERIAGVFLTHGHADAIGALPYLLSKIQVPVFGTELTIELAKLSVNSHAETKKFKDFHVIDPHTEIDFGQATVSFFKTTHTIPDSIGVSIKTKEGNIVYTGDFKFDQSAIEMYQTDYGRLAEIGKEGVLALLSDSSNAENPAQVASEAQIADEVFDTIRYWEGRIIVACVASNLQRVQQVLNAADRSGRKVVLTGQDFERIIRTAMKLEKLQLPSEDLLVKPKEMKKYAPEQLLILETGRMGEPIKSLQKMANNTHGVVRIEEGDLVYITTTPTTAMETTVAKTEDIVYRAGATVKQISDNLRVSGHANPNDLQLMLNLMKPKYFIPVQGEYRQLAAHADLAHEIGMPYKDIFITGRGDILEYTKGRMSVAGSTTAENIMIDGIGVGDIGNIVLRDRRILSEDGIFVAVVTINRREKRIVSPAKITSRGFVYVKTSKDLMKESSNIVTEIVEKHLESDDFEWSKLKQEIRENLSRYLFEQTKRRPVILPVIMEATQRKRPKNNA
The experiment in a line: SPR; Biacore T100; E. faecalis RNase J1 immobilized on a CM5 sensor surface; J2 proteins 400 to 50 nM in duplicate; fitted to the 1:1 binding model. Particulars: both partners purified. A general note: Surface plasmon resonance follows binding to a sensor surface in real time, without labels.

B1: E. faecalis RNase J1 (enzyme)
chain: not shown
notes: recombinant protein M.W. 62.6 kDa; also called rnjA gene product; ef2924; source: E. coli BL21, purified (Ni-NTA agarose)
In turn, B1 had a Kd of 74 nM.
